Results from patent US20260226173A1, “COMPOSITIONS INCLUDING ANTI-WT-1 ANTIBODIES & ANTIGEN BINDING FRAGMENTS AND USES THEREOF” (Memorial Sloan-Kettering Cancer Center, priority 2023, published 2026).

Biological target: HLA-A2-negative cells (HL-60, K562, primary AML 120B, normal cells of HLA-A2-negative donors)
Experiment: cell-based or functional assay

Reduction of CD33+ cells (%), AbTCR-CSR #34 T cells (with anti-CD33 CSR), primary AML 120B (HLA-A*02:01 -): 2.3%
B1: ESK2 caTCR clone #34 (AbTCR), expressed on primary T cells (protein)
VH: QVQLVQSGTEVRKPGASLKVSCTTSGYIFTGYYIHWVRQVPGQGLEWMGWINPNSGVTEFAQGFQGRITMTRDTSTSTVYMELSRLTSDDTAVYYCAREGVWGYYDSWGQGTLVTVSS
VL: SSELTQDPAVSVALGQTVRITCQGDSLRSYYASWYQQKPGQAPVLVIYDKNNRPSGIPDRFSGSSSGNTASLTITGAQAEDEADYYCNSRDSSGNHHVVFGGGTKLTVLG
